Results as given in patent publication US20100291145A1.

Target: human melanoma gp100(46-58) peptide, Ac-…-NH2 (human)
Experiment: ELISA, gp100(46-58) peptide on plate; naive DR4-IE Tg serum; anti-IgG2a detection

For “serum of naive DR4-IE Tg mice (control of Tables 23.9 and 23.10) (antibody)”, which ELISA IgG2a signal at serum dilution 1:20 is on record?
The ELISA IgG2a signal at serum dilution 1:20 was 0.063.

And the ELISA IgG2a signal at serum dilution 1:60?
The ELISA IgG2a signal at serum dilution 1:60 was 0.058.

What about the ELISA IgG2a signal at serum dilution 1:180 of the same substance?
Its ELISA IgG2a signal at serum dilution 1:180 is 0.056.

What about the ELISA IgG2a signal at serum dilution 1:540 of the same substance?
The ELISA IgG2a signal at serum dilution 1:540 was 0.055.
